Tests used:
[1] = molecular target: bat star (Patiria miniata) DGCR8 heme-binding domain, HBD-His6 (Patiria miniata (bat star)); experiment: SEC; size exclusion chromatography, last step of the purification; SEC buffer 400 mM NaCl, 20 mM Tris pH 8.0, 1 mM DTT; elution volumes compared (bat star HBD 13.8 mL; human HBD dimer; human NC9 monomer 2.6 mL later)
[2] = molecular target: the molecule itself; experiment: as above

Row | stoichiometry N [1] | Molecule | stoichiometry N [2]
1 | 2 | bat star (Patiria miniata) DGCR8 heme-binding domain, HBD-His6 (domain or fragment) | –
2 | – | human DGCR8 heme-binding domain, HBD-His6 (domain or fragment, UniProt Q8WYQ5 276-498, looked up, Dimer of 54 kDa; also called human HBD; human HBD-His6; not shown: His6, C-terminal, kept) DGETSVQPMMTKIKTVLKSRGRPPTEPLPDGWIMTFHNSGVPVYLHRESRVVTWSRPYFLGTGSIRKHDPPLSSIPCLHYKKMKDNEEREQSSDLTPSGDVSPVKPLSRSAELEFPLDEPDSMGADPGPPDEKDPLGAEAAPGALGQVKAKVEVCKDESVDLEEFRSYLEKRFDFEQVTVKKFRTWAERRQFNREMKRKQAESERPILPANQKLITLSVQDAP | 2

Reference: publication PMC3388087 (PLoS ONE, 2012)
